Target: thrombin (UniProt P00734;P00734 328-363;364-622)
Assay: fluorescence recovery (FAM-TBA released from GO/capture DNA); FAM-TBA with capture DNA on PEG-blocked GO; thrombin 0.0025-15 nM; sensor LOD is not a Kd; GO 5 ug/mL, 10 nM FAM-DNA, 30 min incubation (covalent sensor); PBS listed in materials, PBS vs water compared in Fig. S6; pH, salt and temperature not in the m

## AAAAGTCCGTGGTAGGGCAGGTTGGGGTGACT (ssDNA) [Thrombin binding aptamer (TBA)]
  binding result: binds
